From the nanobody polyreactivity screen of Harvey et al. (2022)

Assay: yeast display, Sf9 membrane polyspecificity reagent, FACS + sequencing; frameworks hold sequencing errors
Summary of the method: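 After 36–48 hours of galactose induction, yeast (Saccharomyces cerevisiae BJ5465) displaying a synthetic nanobody library were stained at 4 °C for 1 hour with 10% biotinylated, detergent-solubilized Sf9 membrane reagent. Streptavidin microbeads enriched the stained cells before FACS sorting into low and high (top ~1%) gates on anti-HA and streptavidin fluorescence. Each clone's polyreactivity label reflects its gate of origin.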

Row | Sequence | polyreactivity (PSR sort gate)
1 | QDQLVESGGGLVQAGGSLRLSCAASGSTLTRNAMGWYRQAPGKERELVAAITSGGRTKYADSVKGRFTISRDNAKNTVYLQMNSLKPEDTAVYYCAKGGPPGQRGYDYWGQGTQVTVSS | high polyreactivity
2 | QDQLVESGGGLVQAGGSLRLSCAASGSTRIYAMGWYRRAPRKEMELVAAISWTGGRTYYADSVKGRFTISRDNAKIIVYLQMNSLKPEYTAVYYCAAQYFTFYWKLDYWGQGTQVTVSS | high polyreactivity
3 | QDQLVESGGGLVQAGGSLRLSCAASGSTSRTYAMGWYRQAPGKERELVAAINSGGTTYYADSVKGRFTISRDNAKNTVYLQMNSLKPEDTAVYYCARRDFWWSLRIFGYWGQGTQVTVSS | high polyreactivity
4 | QDQLVESGGGLVQAGGSLRLSCAASGSTVSYYTMGWYRQAPGKERELVAAINGSGGSTYYADSVKGRFTISRDNAKNNVYLQMNSMKPEDTAVYYCAADIKRVLDIPMYYWGQGTQVTVSS | low polyreactivity
5 | QDQLVESGGGLVQAGGSLRLSCAASGYIFGIYAMGWYRQAPGKERELVAAISSDSTYYADSVKGRFTISRDNAKNTVYLQMNRQKPEDTAVYYCAAYWFNQDYEFEYWGHGTQVTVSS | high polyreactivity
6 | QDQLVESGGGLVQAGGSLRLSCAASGYIFRIYAMGWYRQAPGKERELVATITNGGSTHYADSVKGRFTISRDNAKNTVYLQMNSLKPEDTAVYYCAADLLYSEYDYWGQGTQVTVSS | high polyreactivity
7 | QDQLVESGGGLVQAGGSLRLSCAASGYTFRYYAMGWYRQAPGKERELVARITGRAGSTYYADSVKGRFTISRDNAKNTVYLQMNSLKPEDTAVYYCAASIREGFYWGQGTQVTVSS | high polyreactivity
8 | QDQLVESGGGLVQAGGSLRLSCAASVFTFRYYAMGWYRQAPGKEREFVATISWSGGSTYYADSVKGRFTISRDNAKNTVYLQMNSLKPEDTAVYYCAAGRVGTTTLEFYYCGQGTQVTVSS | high polyreactivity
9 | QDQLVESGGGLVQAGGSLRLSCAASVRTCNSYAMGWYRQAPGKERELVADITSSGGSTYYADSVKGRVTISRDNAKNTVYVQMNSLKPEDTAVYYCAADGYTRLPTYLRVTHRSLDYCGQGTQVTVSS | low polyreactivity
10 | QDQLVESGGGLVQAGGSLRLSCAASVSIFGVNVMGWYRQAPGKERELVAAITSIGGRTYYADSVKGRFTISRDNAKITVYLQMNSLKPEETAVYYCNADYTGAEYDYWGQGTQVTVSS | low polyreactivity
11 | QDQLVESGGGLVQAGGSLRLSCAASYYAMGWYRQAPGKERELVASISSGGSTNYADSVKGRFTISRDNAKNTVYLQMNSLKPDDTAVYYCAAQYYATYGYWGQGTQVTVSS | low polyreactivity
12 | QDQLVESGGGLVQAGGSLRLSCADSGYTFTSNDMGWYRQAPGKERELVAAITWSGGTTYYADSVKGRFTISRDNAKNNVYLQMNSLKPDDTAVYYCAAESTLPIIDRDDYWGQGTQVTVSS | low polyreactivity
13 | QDQLVESGGGLVQAGGSLRLSCAGCAYIFGRYAMGWYRQAPGKEMELVAAITQRGGRTYYPDSVKGRFTISRDNAKNTVYLQMNSLKPEDTAVYYCAALLYFFLYDYWGQGTQVTVSS | low polyreactivity
14 | QDQLVESGGGLVQAGGSLRLSCAGSGSILDGNAMLWYRQAPGKERELVAGISGDSGSTYYADSVKGRFTISRDNAKNTVYLQMNSLKPEDTAVDYCAVTWGARTDQWPLRVFVGHDYWGQGTQLTVSS | low polyreactivity
15 | QDQLVESGGGLVQAGGSLRLSCDASGFILETNAMGWYRQAPGKERELVASITSSGSTYYADSVKGRFTISRDNAKNTVYLQMNSLKREVTAVYYCAARRYRSRGRTYGWFRYDYWGQGTQVTVSS | high polyreactivity
16 | QDQLVESGGGLVQAGGSLRLSCDASGSIFPIYAMGWYRQAPGKERELVAAINRSGGSTYYADSVKGRFTISRDNAKNTVYLQMNSLKPEDTAVYYCKADYGYHNQLFWGYYGWSSDHWGQGTQVTVSS | low polyreactivity
17 | QDQLVESGGGLVQAGGSLRLTCAASGSTFTLYVMGWYRQAPGKARELVAAISRGDTTNYADSVKGRFTISRDNAKNTVYLQMNSLKPEDTAVYYCAATYPTFFYWSKVYERDYWGQGTQVTVSS | low polyreactivity
18 | QDQLVESGGGLVQAGGSLRLTSAASGFKFEKNAMGWYRQSPGKERQLVARISRSGGSTYYADSVKGRFTISRDNAKNTVYLQMNSLKPEDTADYYCNCLHRSDSGYYYRYDYWGQGTQVTVSS | high polyreactivity
19 | QDQLVESGGGLVQAGGSLRVSCAASGSIFAWYAMGWYRQAPGKDRELVAVITRGGSTNYADSVKGRFTISRDNAKKTVYLQMNSLKPEDTAVYYCAAGSYYSWYPFDYWGQGTQVTVSS | low polyreactivity
20 | QDQLVESGGGLVQAGGSLRVSCAASGSVFLVNAMGWYRQAPGKERELVAIDGSGGSTYADSVKGRFTISRDNAKNTVYLQMNILKPEDTAVYYCAKDQEGPLYDYWGQGTQVTVSS | low polyreactivity
21 | QDQLVESGGGLVQAGGSLSLCCAASGFTFKLYAMGWYRQAAGKVREVVAAISSSGGRTYYADSVKGRFTISRDNAKNTVYLQMNSLKPEDTAVYYCNAVRTVNDYHYDYSGQGTQVTVSS | high polyreactivity

Row | Sequence | polyreactivity (PSR sort gate)
22 | QDQLVESGGGLVQAGGSLSLSCAASGRIFRGNAMGWYRQAPGKERELVASITWRGTSTYYADSVKGRFTISRDNAKNTVYLQMNSLKPEDTAVYYCAASLYSWGQGTEVTVSS | high polyreactivity
23 | QDQLVESGGGLVQAGGTLRLSCAASGRIFKSYAMGWYRQAPGKEREVVASISYTGGSTYYADSVKGRFTISRDNAKNTVYLEMNSLNPEDTAVYYFAAKRVRSAGSYGYWGQVTQVTVSS | low polyreactivity
24 | QDQLVESGGGLVQAGGTLRLSCAASGYTFDTYALGWYRQAPGKERELVAAISYTGGSTYYADSVKGRFTISRDNAKNTVYLQMNSLKPEDTAVYYCAADFNGYPGGDLYVGYDYWGLGTQVTVSS | low polyreactivity
25 | QDQLVESGGGLVQAGRSLRLSCAASGRIFYYNAMGWYRQAPGKERELVAAISYTDDSTYADSVKGRFTISRDNAKNTVYLQLNSLKPEDTAVYYCAADAVAYIYGYDYDYWGQGTQVTVSS | low polyreactivity
26 | QDQLVESGGGLVQAGVSLRISCAASGFTFRGNAMGWYRQAPGKERELVAAITSSDDSTYYADSVKGRFTNSRDNAKNTVYLQMNSLKPEDTAVYYCAAVANGYWTYEYWGQGTQVTVSS | low polyreactivity
27 | QDQLVESGGGLVQAGVSLRLSCAASGLTFPQYVMGWYRQAPGKQRELDASISSSGGNTYYADSVKGRFTISRDNAKNTVYLQMISLKPEDTAVYYCAAEYIFHYYDIFDYWGQGTQVTVSS | high polyreactivity
28 | QDQLVESGGGLVQARGRQRLSCAATGSTFYRNALGWYRQAPGKEREFVAAISFRGGGTYADSVKGRFTISRDNAKNTVYLQMNSLKPEDTAVYYFGADHLSYRRRYEYWGQGTQVTVSS | low polyreactivity
29 | QDQLVESGGGLVQARGSLRLSCAASGRIIKTNAMGWYRQAPGKERELVAAISSSGGRTYYADSVKGRFTISRDNAKNTVYLQMNSLKPEDTAVYYCAAPSLVSFGYWGQGTQVTVSS | high polyreactivity
30 | QDQLVESGGGLVQEGGSLRLSCAASGNIFNRYGMGWYRQAPGKEREFVAAISSGGGSTYYADSVKGRFTISRDNAKNTVYLQINRLKPEDTAVYYCAAGYSSLRRVGVYYWRQGTQVTVSS | high polyreactivity
31 | QDQLVESGGGLVQEGGSLRLSCAASGSTFKNYALGWYRQAPGTERELVAASNVSRARTYYADSVKGRFTLSRDNAKNRVYFQMNSLIPEDTAFYYCAAYYSGVGFDYWGQGTHVTVSS | high polyreactivity
32 | QDQLVESGGGLVQEGGSLRLSCAAYGSIYRYAMGWNRPAPGKERELVAAINFNGGRTYYADSVNGRFTISRDNAKNTVYLQMTSLKPEDTAVYYCAARISVYSTLPNDFDYWGQGTQVTVSS | high polyreactivity
33 | QDQLVESGGRIVQAGGSLRLSCASSGRTFYTYAMGWYRKAPGKERELVAAISSSGSTYYADSVKGRFTISRDNAKNTVYLQMNSLKPEDTALYDCNARTSRYRRGGDSWGQGTQVTVSS | high polyreactivity
34 | QDQLVESGGRLVQAGGSLRLSCAASGRIFSSYALGWYRQAPGKERELVAAIRSSGDRTYYADSVKGRFTISRDNAKITVYLQMNILKPEETAVYFCASRTYLYFGRYDYWGQGTQVTVSS | high polyreactivity
35 | QDQLVESGGVLVQAGGSLRLSCAASGFIFNRYAMGWYRQAPWKERELVAANTRTGSTNYADSVKGRFTISRYNAKYTVYLQMSCLKPEDTAVFYCAAVYLSLGRPYYTFEYWGQGTQVTVSS | high polyreactivity
36 | QDQLVESGGVLVQAGGSLRLSCADSGFSFANYVMGWYRQAPGKERELFAAITTPGGSTSYADSVKGRFTISRDNAKTNVYLQMPSLKPEDTAVYFCKKTTYYPSDYDYWGQGTQVTVSS | low polyreactivity
37 | QDQLVESGRGLVQAGGSLRLSCAASGRTFALNVMGWYRQAPGKERELVAAISRSGGSTYFADSVKGRFTISRDNAKNTVYIQMNSLKPEDTAVYSCAAATHYQSYKRRDYWGQGTQVTVSS | high polyreactivity
38 | QDQLVESGVGIVQAGGRLRLSCAASGRTFGRNAMGWYIQAPGKERELVATISRSGGSTNYADSVKGRFTISRDNAKNTVYLQMNSLKPEDTAVYYCAKARPFSYDYWGLGTQVTVSS | high polyreactivity
39 | QDQLVESRGGLVQAGGSLRLRCAASGRIFTRYAMGWYRQAPRKERELVAAITYNGGSTYYADSVKGRFTISRDNAKNTVYLQMNSLKPEDTAVYYCNAVYMSWFGLYAGFDYWGQGTQVTVSS | high polyreactivity
40 | QDQLVESRGGLVQAGGSLRLRCAASGSIFIGYAMGWYRQAPGKQRELVAAISGSGSSTYYADSVKGRFTISRDNAKNNDYLQMNILKPEDTAVYYCAAAPRFRGYDYCGQGTQVTVSS | high polyreactivity
41 | QDQLVESVGGLVQAGASLRLSCAATGRTFTTYAIGLYRPAPGKERELVAAITSGTSTNYADSVKGRFTISRDTAKNTVYVQMNSLKPEDTAVYYCAAPHGRGYEYWGQGTQVTVSS | high polyreactivity
